From patent publication US20240124539A1 (NEW YORK UNIVERSITY, published 2024)
Positions of bridges follow the written chain, without caps; N, C: chain ends. Non-standard residues stand in square brackets, D forms with d. Primed or numbered codes have the meaning given here. Chains are numbered I, II in the order given. *: point of attachment. dibenzylether crosslinker″ = crosslinker alkylating both cysteine thiols, drawn in Scheme 1 and; dibenzylether crosslinker = scaffold alkylating both cysteine thiols (drawn in Scheme 1 and; dibenzylether crosslinker(3) = scaffold alkylating both cysteine thiols (Scheme 1; FITC = O=C1OC2(c3ccc(O)cc3Oc3cc(O)ccc32)c2ccc(NC(=S)*)cc21; FITC′ = fluorescein isothiocyanate, linked via thiourea; βAla = NCCC(=O)O

What was measured:
[1] = target: T1, wild-type His6-tagged H-Ras (1-166) pre-loaded with GDP (UniProt P01112 1-166); assay: fluorescence polarization, fluorescein-labelled CHD (15 nM), His6-H-Ras-GDP titrated
T1 construct: range 1-166; also called His6-H-Ras-GDP; not shown: N-terminal His6 tag with TEV site from the pProEx HTb vector

[2] = target: T1, wild-type His6-tagged H-Ras (1-166) …; assay: direct fluorescence polarization; fluorescein-labelled CHD titrated with GDP-loaded WT H-Ras
Protocol: (§1) The generated binding affinity (KD) values for each compound are from biological triplicate studies and were determined via fitting to a sigmoidal dose-response nonlinear regression model on Graphpad Prism 6.

[3] = target: T1, wild-type His6-tagged H-Ras (1-166) …; assay: fluorescence polarization, fluorescein-labelled CHD, His6-H-Ras-GDP titrated
Protocol: as §1

[4] = target: T2, fluorescently-labeled wild-type H-Ras-GDP (MST) (UniProt P01112 1-166, cysteine-reactive dye (Monolith RED-MALEIMIDE 2nd Generation or AFDye 647 maleimide) on cysteine, degree of label 0.43); assay: microscale thermophoresis (column MST of the drawn table); fluorescently labelled wild-type H-Ras-GDP with serial dilutions of the unlabelled CHD
T2 construct: range 1-166; also called fluorescently-labeled Ras; wild-type H-Ras labeled with AFDye 647; not shown: N-terminal His6 tag from pProEx HTb

| Binder | Kd [1] | Kd [2] | fold enhancement in binding affinity over CHC^Sos-1 [3] | fold reduction in affinity against CHC^Sos-5 [3] | Kd [4] |
| --- | --- | --- | --- | --- | --- |
| FITC-CHD^Sos-2 (designed binder, linker I:6-II:18 via dibenzylether crosslinker; not fully specified, Crosslinked helix dimer; form used in the fluorescence polarization assay; also called CHC^Sos-2 (fluorescein-derivatized); CHD-2) chain 1: Ac-WIGRLCTEILRLRNGN-NH2 chain 2: {FITC′}-A[βAla]LAWRLRELERELARLC-NH2 | 2.8 µM | 2.79 µM | 10 fold | – | – |
| FITC-CHD^Sos-6 (designed binder, linker I:6-II:18 via dibenzylether crosslinker″; not fully specified, Crosslinked helix dimer; form used in the fluorescence polarization assay; also called CHC^Sos-6 (fluorescein-derivatized)) chain 1: Ac-WIGRLCTEIRRLRNGN-NH2 chain 2: {FITC}-A[βAla]LAWRLRELERELARLC-NH2 | 8.6 µM | – | – | 4 fold | – |
| FITC-CHD^Sos-4 (designed binder, linker I:6-II:18 via dibenzylether crosslinker; not fully specified, Crosslinked helix dimer; form used in the fluorescence polarization assay; also called CHC^Sos-4 (fluorescein-derivatized); CHD-4) chain 1: Ac-WIGRLCTEILRLRNGN-NH2 chain 2: {FITC′}-A[βAla]LAWALRELERELARLC-NH2 | 40 µM | 40.4 µM | – | – | – |
| CHD^Sos-3 (designed binder, linker I:6-II:16 via dibenzylether crosslinker(3), also called CHC^Sos-3; CHD-3) chain 1: Ac-AIGRLCTEILRLRNGA-NH2 chain 2: Ac-LAWRLRELERELARLC-NH2 | – | – | – | – | > 10 µM |
